Experimental data taken from patent US20230242871A1, “GENERATION OF PRIMORDIAL GERM CELLS AND METHODS OF USING THE SAME” (The Board of Trustees of the Leland Stanfor Junior …, priority 2020, published 2023).

Tested on: NANOS3-mCherry hESCs
Test: PGC differentiation of NANOS3-mCherry hESCs, flow cytometry for NANOS3-mCherry fluorescent reporter expression
Format: cell-based, human
Description: In the NANOS3-mCherry hESC line, a 2A-mCherry fluorescent reporter was inserted immediately downstream of the NANOS3 gene without disrupting its coding sequence (Irie et al., 2014). In the SOX17-GFP hESC line, a GFP fluorescent reporter was inserted immediately after the SOX17 start codon, thus functionally invalidating one SOX17 allele (Wang et al., 2011). In the NANOG-2A-YFP hESC line, Cas9 RNP/AAV6-based genome editing (Martin et al., 2019) was used to insert a 2A-iCaspase9-2A-YFP fluorescent reporter immediately downstream of the NANOG gene without disrupting the NANOG coding sequence.
hPSC differentiation into PGCs. Undifferentiated hPSCs were maintained in mTeSR1 + 1% penicillin/streptomycin and enzymatically passaged (Accutase, 1:8-1:12 split) for differentiation. After overnight recovery in mTeSR1 + Thiazovivin (ROCK inhibitor, 5 µM), the following morning, hPSCs were briefly washed (DMEM/F12) and differentiated into posterior epiblast for 12 hours (100 ng/mL Activin + 3 µM CHIR99021 + 10 µM Y-27632) in aRB27 basal media, which comprised Advanced RPMI 1640 medium supplemented with 1% B27 supplement, 0.1 mM non-essential amino acids (NEAA), 100 U/ml Penicillin + 0.1 mg/ml Streptomycin, and 2 mM L-Glutamine (Kobayashi et al., 2017). Subsequently, […], […], […], 100 ng/mL SCF, 50 ng/mL EGF, 1 µM XAV939, and 10 µM Y-27632 for 24 hours (all in aRB27 basal media). For comparison, published PGC differentiation protocols (Sasaki et al., 2015; Kobayashi et al., 2017) were performed as described previously.
Flow cytometry and fluorescence-activated cell sorting (FACS) for cell-surface marker expression. hPSCs or their differentiated derivatives were dissociated using TrypLE Express (Gibco), were washed off the plate with FACS buffer (PBS + 0.1% BSA fraction V [Gibco] + 1 mM EDTA [Gibco] + 1% penicillin/streptomycin [Gibco]) and were pelleted by centrifugation (5 mins, 4° C.). Subsequently, cell pellets were directly resuspended in FACS buffer containing pre-diluted primary antibodies (listed below), thoroughly triturated to ensure a single cell suspension, and primary antibody staining was conducted for 30 mins on ice. Afterwards, cells were washed with an excess of FACS buffer and pelleted again, and this was conducted one more time. Finally, washed cell pellets were resuspended in FACS buffer containing 1.1 µM DAPI (Biolegend), and were strained through a 35 µm filter. Flow cytometry and sorting was conducted on a BD FACSAria II (Stanford Stem Cell Institute FACS Core).

B1: BMP4: bone morphogenetic protein 4, UniProt P12644 (protein, UniProt P12644 293-408, looked up)
Bone morphogenetic protein 4: SPKHHSQRARKKNKNCRRHSLYVDFSDVGWNDWIVAPPGYQAFYCHGDCPFPLADHLNSTNHAIVQTLVNSVNSSIPKACCVPTELSAISMLYLDEYDKVVLKNYQEMVVEGCGCR
efficiency upon BMP4 subtraction (BMP4 subtraction from D1.5-2.5, in BMP4 + SCF + EGF + XAV939 + Y-27632 D0.5-3.5, readout D3.5, FIG. 5C): enhance efficiency
efficiency on BMP4 titration (BMP4 titrated to 20 ng/mL on D0.5-3.5, monolayer, readout D3.5, FIG. 5D): without significant loss in efficiency
differentiation of PGCs, BMP4 not omitted (continuous BMP4 in second phase, FIG. 5C): about 10%
differentiation of PGCs, BMP4 omitted (omitting BMP4 from the culture media for 24 hrs at day 2 of differentiation, FIG. 5C): ~30%
